In a protein production outcome set (Wang et al. 2014):

Test: label from the status in PepcDB records

Row | Sequence | protein production
1 | KVVFAKEQPAHREVQAEAGASATLSCEVAQAQTEVTWYKDGKKLSSSSKVRVEAVGCTRRLVVQQAGQAEAGEYSCEAGGQQLSFRLQVAGQCFG | not failed
2 | MRETVKLIEVARELPVSRKNLQMLLLLLLCGAAAYIINLADPALEPLFLALVFGIVAGNLQRDEEKKRVVERYVPFLLPIGITLYGVNINIPYLGEFHPEIVAATLISTSLIFLTVFWLSSRLKLSRQMSILLACGSGICGVSAIAIISPLIKPRKEEFSAAIMIITAVGLTGAILYPSIAHYASISPDEFAVLAGATLHQTGIVKISSQLFGVEEEALAIKGIRIAMIALVVLILSIIYSESRFYVPWYIVSFLGVALFSSTYLPGEVVQALRPLATVMFATTLAAICYTVNVGRVQRVGVKPLFASYAGWAVGVAFVLLLLGSGAL | failed
3 | MATIIFAGRSNVGKSTLIYRLTGKKVRRGKRPGVTRKIIEIEWKNHKIIDMPGFGFMMGLPKEVQERIKDEIVHFIEDNAKNIDVAVLVVDGKAAPEIIKRWEKRGEIPIDVEFYQFLRELDIPTIVAVNKLDKIKNVQEVINFLAEKFEVPLSEIDKVFIPISAKFGDNIERLKNRIFEVIRERQGRRV | not failed
4 | MRVVHILLQVGILYGFYLVGSWIQKSFELIVPGSIIGMVLLLIALAIKAISPKWIEQGSMQLLLLMPMLFLPVTVGIMEYWHMFHGSGFWLLIIAFVSTILVFIISGWITQWLIAWKTKGIDKHDHL | failed
5 | MSLNYIEDIKNYIPFNEQEERDKELFLRCLNDFHDILTRDNTIAHLTSSAFAVNKERNKFLMIHHNIYNSWAWTGGHSDNEKDQLKVAIKELKEETGVKNPTPLLDKAFALDVLTVNGHIKRGKYVSSHLHLNLTYLIECSEDETLMLKEDENSGVMWIPFNEISKYCSEPHMIPIYEKLINKLKTQSKEGHHHHHH | not failed
6 | MVKDTLFSTPIAKLGDFIFDENVAEVFPDMIQRSVPGYSNIITAIGMLAERFVTADSNVYDLGCSRGAATLSARRNINQPNVKIIGIDNSQPMVERCRQHIAAYHSEIPVEILCNDIRHVEIKNASMVILNFTLQFLPPEDRIALLTKIYEGLNPNGVLVLSEKFRFEDTKINHLLIDLHHQFKRANGYSELEVSQKRTALENVMRTDSIETHKVRLKNVGFSQVELWFQCFNFGSMIAVK | not failed
7 | MSFVAGVIRRLDETVVNRIAAGEVIQRPANAIKEMIENCLDAKSTSIQVIVKEGGLKLIQIQDNGTGIRKEDLDIVCERFTTSKLQSFEDLASISTYGFRGEALASISHVAHVTITTKTADGKCAYRASYSDGKLKAPPKPCAGNQGTQITVEDLFYNIATRRKALKNPSEEYGKILEVVGRYSVHNAGISFSVKKQGETVADVRTLPNASTVDNIRSIFGNAVSRELIEIGCEDKTLAFKMNGYISNANYSVKKCIFLLFINHRLVESTSLRKAIETVYAAYLPKNTHPFLYLSLEISPQNVDVNVHPTKHEVHFLHEESILERVQQHIESKLLGSNSSRMYFTQTLLPGLAGPSGEMVK | failed
8 | MIVAAPEQYSRDRDWQQAIAAGELTLALQPQMGLRNRQLRGFEVQLRWQHPQQGTLLASQLMEHLEQSQHRETVGRWFLDQAGQLLSQWRNSAQFSGLFALSLLPQQWKSPSFIHDLRSLLETYQIPPEQLELDLPAQSLAESAAESWDWVYAVRDLGIGIGLADFGSRSIGLYDLRNLPLTTLKLERRFVRGLPDDANDRAIVRGVVAMSQALKVRIVARGVDTVDQAKFLARAECDAMQGLAYSAPLEHHHHHH | failed
9 | MSKISDNHDHSALQFMKKKVRENGSRDIRQIYVPAYTQVPLPNNMKKQIFFWLGALIFFILFMLVFGSILLPFVAGIVLAYFLNPIVQLLEKFRIRRVFGTILITLFIVVVFVAALIILIPIISWQIQQFMNDGLPVYINRIQTFFVEHDFDWVRRYFGSDPNELQSNIKGLLGQSSDFITSLLNSLLKSGKSLVNIVSLFVVAPVVAFYMLLDWPRMVTAVDSLIPRDHLETVRSIFHEMDRAIAGFVRGQGTACLILGGYYAIGLTITELNFGLLIGMFIGLISFVPYIGTMSGFLLSVGVAWVQFYPNNWGWIIVVMVIFLIGQFIEGYILQPKLVGSSVGLHPVWLMFALFAFSSLFGFTGMLIAVPAAAAVGVLVRFALHTYLNSQMYSRSGNSERLE | failed
10 | MSLSFLKHVQDCNTHDLSNFVRFVIEGRRVGWVRKALAQRLKAHGRVFDVTRDAVLLSASLRTPQSRTRAVADVVDRLADEGVVPAPRGELYRVNQSWGEPTLMLLDRAVVPTFGVRAYGVHLNGYVGAGADLHLWIGRRSPDKSVAPGKLDNMVAGGQPADLSLRQNLIKECAEEADLPEALARQAIPVGAITYCMESPAGIKPDTLFLYDLALPEDFRPHNTDGEMADFMLWPAAKVVEAVRTTEAFKFNVNLTVIDFAIRHGLIDPDNEPDYQEILAGLRGRPRERAASEGHHHHHH | not failed
11 | MALQSSVRAFKKPPRPLVDEVRFLRSWIEKPLHMGAVMPSGKLLARTMARYVDIQSDGPVIELGPGTGAITNALVEHGVDQKRLVLLEFDPGFCALLRERFPLAKVVQGDAYRLRDSLWDALEIPATAVVSGLPLVTKPMLTRMKLIRDAFTLLEPGAPFVQFTYSVAPPIPKSLPGVSTEGSERIWMNVPPARVWVYRKRLEHHHHHH | failed
12 | MLIILFLIQMILIVKALGLKGLFIFLALIFGLFVLCKVSLKVKLPRNKYSKVTWEDMPWLYDGVARMANKARISTPNIYIEDNPIPTAYSFQNSIVLSAGLLEILNEEEVLAVAAHEIGHIKNGDTVLFPLLRYGKYIMGIITAIIVIFATGFITKVVSFLVFVIYAFSLLKFLRKREFLADRVALQIAEVPYALKSALEELKFYEEALKTKEMPLPTIQPSIRREEKREPQIFPLPSTHPSYDERIARIIAIVEMYRRLEFLN | failed
13 | MEISCLLNEIKASIRYENQIVHIEETPARDACYAPLELEVRIKAALSGTGIEALYSHQAEAIEKVREGKDLVLCTSTASGKSLTYMIPVFEAVLKDPEATSLYISPLNALVNDQLKAFLEFEGALNSGAGIARYTGALSADQKRKIRDGKTNIVFTNPEMVHMSFLAWHHLWRRFFSNLRFIVVDESHYYRGVIGSNMANVLRRLLRVAEYYGASPQFICCSATIGNPEDHTETLLGREAVVVENNGSLQGPQKFVFWNPPLYMNGRGCTVRRSSFSEASALFTRAVQAGLQTLAFTRSRQGVERMYRTCMELLRDRELPSAICPYRSGYFDREREEIERKMNSGELRGVISTNALELGIDIGGLDVCILDGYPGTVMSARQQAGRAGRSGNESLVLMVAGTNALDQYYMRNPADFFARSSENAVLNPKNPYILAGHLLCAAKEIPLRESDEKYFGGGYSRVVELLEAEGLLAGSDMKYSTDPFPYKQVSLRGIDNNTYSLLAFEGERSFPIEKDIEETLAFRECHPGAVYIHRGESFYINRIDHEKREIHAIKTHDSYYTKPMIDSSVVVQETYAAKPLLHAPEVEVGLGEVEVTDRIAGYRKIRTHSDETMSAHEIEMPPITLQTVALWLKLPDRLQEMIGDHKLDFAGGIHAVEHAIISMYPLHLLVDRSDVGGVSTPSHPDLGSKSGIFIYDGHRGGVGYAEKGYDLIEEVLEGTLKAIESCPCESGCPGCIQSPKCGNNNEPLDKHAAIMLLHELLGKAPYIPPEKKEKHLSEARARKTIPQERKSSGDALDRVRRQLRRENINQEPQAGKEKKEKTFIATDENGGMIGVVSAPTPEKAAAKTFHKKLAGQQGATKEKPLEIRIRDLGAGSDYHFRAWTELFEAAENGDPESKEKKAVKKLFIRKMS | failed
14 | MLFSASLIHRIEFAPQRELYFLALYRILEAGLIAALVFSPVSLLVDPESDPHLGTVVAVGYLLLATILLVWGRNERWFTPLVFGSTVADILAATLAIHALPKASAGIAMMLLFNVAAAAILLRLRFSMILAWIAGVAMLVEYIWTVLSEGDSSRSLAELLMFFTSYTAVAYMCHQAAQRARYSQALAEKRRAQIVNLAEINELIIRRMRTGVLVVDAANRIGLSNETAAALLGYDRQLVESDYDLATVAPELIMRLKCWRIGRHYEDTPLRLAPDQPEVQPRFVSLLADSGLTLIFLDDVSVVSRRAESLTLLALGRFSASLAHEIRNPLAAIKHASQLLEESSNLDKGDQRLLDIILKQCQRTNGIVESVLGLARRERANPENLDLVGFVSRFVDEYRQTLSSEYDNLEIQTLHSTVQALVDPRHLYQILAVLTHNALRYGRFPDTPAQVRIEVVYTGGSVGINVLDQGPGIPDAAVLQLFQPFFTTSDHGTGLGLYIARELCNANQSNLEYVAIPGGGACFRITLPGPYALIPN | failed
15 | MKLATKKNGTRDGLLMVVSKDLTRCVPATEVFHPRNLAPTMQVALDNWEAVAPQLEEIYTALNNGTVAGFEEFEAHYCESPLPRAYQWADGSAYVNHVELVRKARGAEMPESFWTDPLMYQGGSDAFIGPCDNIEFASDEWGIDFEGEVAVVTGDVPMGASIAEAQESIRLIMLVNDVSLRGLIPAELAKGFGFFQSKPSSAFSPVAVTPDELGDEWYENKVHLPLVSTYNHKPFGRPNAGVDMTFDFADLIVHATKTRPLSAGAIIGSGTVSNKQGTDHGTSIEEGGVGYSCIAEVRMIETIRDGKPTTNFMSFGDSIKLEMFDVEGNTIFGAIDQQVSQYLKH | failed
16 | GGRGIIRLIKDNKSLTMKNTEVMLHGSSLAFDASTLEIYAALLNGACLSIIDKEDLIDSQTLKEKLKNDHVNRAFFTTPLFNSLCEQDPSVFNELEQVIIGGDRASNKHLKIVMKNSKKTQFYNGYGPTENTVFTTMHNIQYSELEGDIPIGKA | failed
17 | MYEAGLAEGESAYGHGGYISVPELPAGVAVRNSRRPDIIQESSYLRILAPAGGWLAAATLEKLADCAETYGRGLVHLTSGGTIEIYTGREQMLPLVRELNSGGLDVGSTGDDLRCLTACCGPVRCEHALVDAPALATYLGQRFIDDQQYPGYPQKVKSAVAGCPNDCIRAMMQKDHSFIGVYRDWPMVDGEMLAAWREKGGDLNGLLAACPAGALTLVGDTLEVDKERCWRCMACINYCPAIRPGRERGVAWVAGGKYGHRGPQGPMVGFVLVPFIPVADDDYTAVGDIFGAFLEFWADNAKKKERVGDFIARVGPLKILRELGLEAQPQILLSPKRNVY | failed
18 | MLNPVSQLSQAIRENTEHLAEKMKILFQNTGRAWEDLEARINAENEVPILKTSNKEISSILKELRRVQKQLEVINAIVDPSGSLDLLTGNRSLASSAQPGLGKGRVAAQSPPSPASAEALLPALPLRNFPQRASCGPPSLPDPTFLPDAERFLI | failed
19 | MKIALINENSQASKNHIIYDSLKEATDKKGYQLFNYGMRGEEGESQLTYVQNGLMAAILLNTKAVDFVVTGCGTGVGAMLALNSFPGVVCGLAVDPTDAYLYSQINGGNALSIPYAKGFGWGAELTLKLMFERLFAEEMGGGYPRERVIPEQRNARILNEVKQITHNDLMTILKIIDQDFLKDTISGKYFQEYFFENCQDDEVAAYLKEVLAK | not failed
20 | METAICGRLALAPSSLFNSKSGDKHLVSKGPCVNRSILMTLSTSAALGKGGGVLDKPIIEKTTPGRESEFDLRKSKKIAPPYRVILHNDNFNKREYVVQVLMKVIPGMTVDNAVNIMQEAHINGLAVVIVCAQADAEQHCMQLRGNGLLSSVEPDGGGC | failed
21 | MKKLNTNKLTEEQVNLFKNNLVYLATVDADGNPQVGPKGSMTVLDPSHLQYLEKTKGEAYENIKRGSKVALVAADVPSHTAVRVLATAEVHEDDDYAKKVLAKTEFPNAFVVNLNIEEVFA | not failed
